Assay results: the supplement of paper PMC10567573

B1: VPS39 (parent)
chain: QQVKCIITEEKVCMVCKKKIGNSA
B2: ZNF24 (parent)
chain: YGETCFPKGRFERKRNPSRKKQHI

Variants of: B1
Experiment: protein stability index of a GFP-peptide fusion (GPS, HEK-293T) (PSI 1-6); higher = more stable
Details: c terminus: a fixed tail appended
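Also: lentivirally expressed fusions sorted by FACS into six bins by GFP to DsRed ratio, PSI derived from sequencing read proportions per bin multiplied by bin number.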

Protein stability index, by site and new letter:
Q1: P 2.79 | L 2.62 | R 2.24 | S 2.57 | W 1.98 | A 1.95 | C 2.4 | M 1.83 | I 1.9 | F 1.49 | D 3.69 | N 2.91 | E 2.67 | K 1.88 | Y 1.64 | H 2.59 | V 1.11 | G 3.05 | T 2.52
K4: I 1.19 | Y 1.42 | S 2.22 | W 2.25 | E 3.28 | L 1.77 | V 2.19 | A 2.72 | R 2.53 | T 2.44 | H 2.44 | G 2.81 | P 3.12 | Q 2.77 | D 2.68 | F 1.42 | M 1.83 | C 3.6 | N 2.83
V3: C 4.46 | F 1.89 | N 2.8 | Y 2.58 | H 5.16 | R 2.5 | D 3.92 | E 3.47 | M 2.8 | K 2.89 | Q 3.32 | A 2.81 | W 1.49 | G 3.01 | S 3.17 | L 2.77 | I 2.38 | T 2.82 | P 3.49
Q2: W 2.72 | Y 2.37 | L 2.4 | A 2.94 | S 3.77 | P 2.77 | C 4.17 | V 3.17 | R 2.59 | E 3.37 | G 2.32 | F 2.17 | N 2.26 | D 3.15 | H 3.05 | T 2.61 | K 2.59 | I 1.45 | M 2.93
C5: L 2.34 | I 2.24 | N 2.79 | G 2.82 | F 1.96 | K 3.61 | H 3.21 | E 3.75 | A 3.02 | M 1.99 | D 3.86

Variants of: B2
Experiment: as above
Details: c terminus: a fixed tail appended

Protein stability index of substitutions, site by site:
R13: E 3.1 | S 3.14 | I 2.32 | M 2.15 | Q 2.61 | D 2.93 | L 2.58 | Y 2.25 | V 2.19 | A 2.96 | W 1.75 | G 2.22 | H 3.21 | T 2.3 | N 2.87 | P 3 | K 2.9 | C 2.33 | F 2.43
R19: K 2.82 | T 3.5 | E 2.56 | G 2.69 | I 2 | A 3.07 | S 3.38 | W 2.42 | H 3.22 | F 1.83 | Y 2.68 | D 2.95 | L 2.06 | M 2.89 | V 2.89 | Q 2.26 | P 3.28 | N 2.86
I24: C 2.9 | P 2.29 | D 2.6 | L 2.78 | W 2.3 | N 3.54 | E 3.13 | S 2.77 | A 3.43 | T 3.42 | Q 3.08 | M 2.57 | V 3 | R 2.86 | G 2.64 | F 2.71 | H 2.93 | K 3.22 | Y 3
E12: Y 2.46 | Q 2.3 | K 2.91 | T 3.16 | S 2.85 | R 3.88 | L 3.59 | C 2.8 | M 1.87 | V 2.16 | F 2 | H 3.09 | D 3.26 | I 2.34 | G 3.16 | A 2.49 | P 3.11 | N 3.1 | W 2.3
K21: R 2.85 | P 2.61 | Q 2.59 | C 2.45 | T 2.97 | E 3.1 | L 1.95 | F 2.09 | D 3.11 | I 2.38 | H 2.73 | M 2.08 | S 3.05 | V 2.2 | A 2.78 | Y 3.23 | W 2.17 | N 3.23 | G 3.16
P17: H 3.04 | T 3.09 | R 2.89 | Q 2.95 | M 2.79 | Y 2.34 | K 2.5 | L 2.5 | S 2.62 | V 2.25 | D 3.58 | C 2.37 | E 2.93 | N 3 | F 2.78 | G 2.97 | W 2.52 | A 2.56
H23: K 3.22 | W 2.3 | R 2.73 | G 3.25 | S 2.56 | D 2.42 | M 3.14 | P 3.1 | T 2.43 | E 2.68 | L 2.57 | Q 2.95 | F 2.95 | C 2.85 | Y 2.76 | A 2.42 | I 2.57 | V 2.78 | N 2.85
K20: P 2.49 | T 2.44 | V 2.66 | L 2.05 | G 3.29 | Y 2.76 | C 2.1 | H 3.09 | A 3.31 | M 2.08 | R 2.34 | S 3.17 | D 3.48 | F 2.45 | I 2.63 | N 3.08 | Q 2.34 | W 1.99 | E 2.77
R15: W 2.76 | Q 2.88 | I 2.28 | P 3.15 | S 2.79 | V 2.83 | N 3.2 | L 2.76 | H 2.84 | A 2.76 | T 2.46 | M 3.17 | F 2.83 | D 3.17 | Y 2.02 | C 2.65 | G 2.75 | E 2.93 | K 2.03
K14: S 2.65 | R 2.8 | C 2.41 | D 3.63 | P 3.18 | E 3.65 | F 2.55 | G 2.92 | W 2.34 | Y 2.89 | N 3.48 | L 2.82 | A 3.21 | I 2.96 | H 2.51 | M 2.7 | V 2.42 | T 2.27 | Q 3.1
S18: C 2.76 | E 3.63 | K 3.1 | R 2.82 | Q 3.03 | T 2.72 | A 2.55 | P 2.48 | Y 2.02 | D 3.07 | N 3.87 | W 2.22 | L 3.16 | V 2.62 | I 2.88 | F 2.71 | G 3.53 | M 2.77 | H 2.34
Q22: P 2.59 | I 2.28 | F 2.23 | D 2.9 | M 2.61 | R 2.69 | K 2.73 | E 3.19 | A 2.97 | W 2.25 | S 3.4 | L 2.4 | V 2.4 | C 2.14 | N 2.94 | H 2.33 | T 2.67 | G 2.95 | Y 2.46
N16: T 2.89 | R 2.63 | F 2.23 | M 2.71 | Y 2.82 | G 2.5 | I 2.7 | L 2.49 | A 2.5 | D 2.15 | Q 2.87 | C 2.14 | S 2.92 | E 2.89 | K 2.9 | V 1.94 | P 2.31 | W 2.21
F11: Y 3.32 | W 2.2 | V 2.59
